This passage reports Kd from the Ca2+ titration curve of the BRET construct results from paper PMC8383114.

The target in this assay is C18 (a CaM binding peptide from CaMKIIα). Briefly: FRET or BRET.

In turn, “WT-CaM of the BRET construct (Venus, CaM, target peptide, RLuc8) (from UniProt P0DP26 1-149) (natural protein)” showed a Kd from the Ca2+ titration curve of the BRET construct of 3.92 µM.
